# Substitutions are numbered along the chain they refer to.
# T1: mouse CD137 (recombinant, ForteBio Octet) (mouse, UniProt P20334 24-187, limits assumed)
# T1 construct: also called murine CD137
# T1 sequence (looked up): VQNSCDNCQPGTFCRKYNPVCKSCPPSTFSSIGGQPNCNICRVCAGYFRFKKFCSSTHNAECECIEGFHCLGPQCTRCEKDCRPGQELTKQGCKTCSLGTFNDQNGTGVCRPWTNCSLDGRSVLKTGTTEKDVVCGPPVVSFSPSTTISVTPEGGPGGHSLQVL
# T2: Fc-, mouse IgG2a-, or His-tagged cynomolgus CD137 (cynomolgus, UniProt A9YYE7 24-186)
# T2 construct: also called cyno CD137; not shown: Fc, mouse IgG2a or His tag
# T2 sequence: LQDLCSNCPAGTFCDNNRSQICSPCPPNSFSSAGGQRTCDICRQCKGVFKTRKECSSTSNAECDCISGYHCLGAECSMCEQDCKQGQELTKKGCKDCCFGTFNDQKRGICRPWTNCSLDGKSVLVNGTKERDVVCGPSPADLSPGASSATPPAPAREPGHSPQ
# T3: Fc-, mouse IgG2a-, or His-tagged mouse CD137 (mouse, UniProt P20334 24-187)
# T3 construct: Antigens came from ACRO Biosystems, Sino Biological and internal sources; not shown: Fc, mouse IgG2a or His tag
# T3 sequence (looked up): T1 sequence (looked up)
# T4: mouse CD137 (equilibrium cell-binding assay) (mouse, UniProt P20334 24-256)
# T4 construct: whole, on cells; The cells are not described; also called mCD137
# T4 sequence (looked up): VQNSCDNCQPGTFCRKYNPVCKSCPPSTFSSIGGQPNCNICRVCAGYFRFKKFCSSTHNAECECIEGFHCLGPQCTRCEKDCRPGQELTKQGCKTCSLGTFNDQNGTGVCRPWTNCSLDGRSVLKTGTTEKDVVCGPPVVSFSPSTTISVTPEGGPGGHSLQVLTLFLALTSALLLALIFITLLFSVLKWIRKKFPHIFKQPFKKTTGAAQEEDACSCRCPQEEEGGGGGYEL
# B1: mAb12 (antibody, IgG4, V domains shown)
# VH: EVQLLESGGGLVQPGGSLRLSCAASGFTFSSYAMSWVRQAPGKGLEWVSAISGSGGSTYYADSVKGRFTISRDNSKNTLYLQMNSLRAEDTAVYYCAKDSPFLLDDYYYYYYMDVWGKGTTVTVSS
# VL: DIQLTQSPSSLSASVGDRVTITCRASQDIGDWLAWYQQKPGKAPKLLIYKASGLQSGVPSRFSGSGSGTEFTLTISNLQPEDFATYYCQQGNQFPLTFGQGTRLE
# B2: anti-CD137 mAb8 (antibody, V domains shown)
# VH: EVQLLESGGGLVQPGGSLRLSCAASGFTFRNYAMSWVRQAPGKGLEWVSAISGSGDTTYYADSVKGRFTISRDNSKNTLYLQMNSLRAEDTAVYYCAKDSPFLLDDYYYYYYMDVWGKGTTVTVSS
# VL: DIQMTQSPSSVSASVGDRVTITCRASQGISSWLAWYQQKPGKAPKLLIYAASSLQSGVPSRFSGSGSGTDFTLTISSLQPEDFATYYCQQGHLFPITFGGGTKVEIK
# notes: Generated with IgG4 constant regions
# B3: anti-CD137 mAb10 (antibody, IgG4, V domains shown)
# VH: B2 VH with R30Y, N31G, S49A, T57S
# VL: B2 VL
# notes: as for B2
# B4: mAb9 (antibody, IgG4, V domains shown)
# VH: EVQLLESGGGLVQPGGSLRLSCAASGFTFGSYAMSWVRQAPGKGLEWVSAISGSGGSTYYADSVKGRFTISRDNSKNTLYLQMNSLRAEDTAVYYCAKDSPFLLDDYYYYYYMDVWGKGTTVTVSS
# VL: B2 VL
# B5: mAb7 (antibody, IgG4, V domains shown)
# VH: B2 VH with R30N, N31Y, S52D, T57N, Y59T
# VL: B2 VL
# B6: mAb11 (antibody, IgG4, V domains shown)
# VH: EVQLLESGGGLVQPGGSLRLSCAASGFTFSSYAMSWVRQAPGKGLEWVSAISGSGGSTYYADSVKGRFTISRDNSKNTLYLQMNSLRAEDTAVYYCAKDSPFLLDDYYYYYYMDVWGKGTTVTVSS
# VL: DIQMTQSPSTLSASVGDRVTITCRASQNIHNWLAWYQQKPGKAPKLLIYKASGLESGVPSRFSGSGSGTEFTLTISSLQPDDFATYYCQQGDRFPLTFGGGTKVEIK
# B7: mAb1 Fab (Fab, V domains shown)
# VH: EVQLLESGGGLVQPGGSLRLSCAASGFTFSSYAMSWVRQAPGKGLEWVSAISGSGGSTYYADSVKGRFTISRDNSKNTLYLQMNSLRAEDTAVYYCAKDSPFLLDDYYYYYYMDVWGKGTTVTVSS
# VL: B2 VL
# B8: mAb8 Fab (Fab, V domains shown)
# VH: B2 VH
# VL: B2 VL
# B9: mAb10 Fab (Fab, V domains shown)
# VH: B2 VH with R30Y, N31G, S49A, T57S
# VL: B2 VL
# B10: mAb1 wild type, reference of the CDRH3 alanine scan (antibody, V domains shown)
# VH: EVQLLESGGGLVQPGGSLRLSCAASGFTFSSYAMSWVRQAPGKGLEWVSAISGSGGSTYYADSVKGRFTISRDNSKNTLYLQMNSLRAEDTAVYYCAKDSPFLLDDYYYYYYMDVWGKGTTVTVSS
# VL: B2 VL
# notes: The derivatives were cloned into an aglyco-IgG1 expression vector (DID-2600); also called WT KD
# B11: mAb1 alanine-substituted derivative Y(100E)A (antibody, IgG1, V domains shown)
# VH: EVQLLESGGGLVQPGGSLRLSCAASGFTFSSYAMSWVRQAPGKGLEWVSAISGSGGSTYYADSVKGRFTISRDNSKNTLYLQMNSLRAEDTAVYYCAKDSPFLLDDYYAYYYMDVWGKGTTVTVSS
# VL: B2 VL
# notes: aglyco-IgG1 vector (DID-2600)
# B12: mAb1 alanine-substituted derivative S96A (antibody, IgG1, V domains shown)
# VH: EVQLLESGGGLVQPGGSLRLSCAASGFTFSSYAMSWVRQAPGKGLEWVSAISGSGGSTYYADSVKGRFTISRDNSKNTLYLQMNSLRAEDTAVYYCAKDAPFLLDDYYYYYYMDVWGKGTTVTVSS
# VL: B2 VL
# notes: aglyco-IgG1 vector (DID-2600)
# B13: mAb1 alanine-substituted derivative Y(100G)A (antibody, IgG1, V domains shown)
# VH: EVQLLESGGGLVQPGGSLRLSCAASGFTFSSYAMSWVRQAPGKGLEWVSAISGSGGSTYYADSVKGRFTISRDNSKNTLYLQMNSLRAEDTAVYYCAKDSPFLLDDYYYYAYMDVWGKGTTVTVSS
# VL: B2 VL
# notes: aglyco-IgG1 vector (DID-2600)
# B14: mAb1 alanine-substituted derivative Y(100C)A (antibody, IgG1, V domains shown)
# VH: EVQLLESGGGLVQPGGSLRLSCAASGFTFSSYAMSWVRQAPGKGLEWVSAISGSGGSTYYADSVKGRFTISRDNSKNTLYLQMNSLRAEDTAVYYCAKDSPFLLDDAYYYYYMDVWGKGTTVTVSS
# VL: B2 VL
# notes: aglyco-IgG1 vector (DID-2600)
# B15: mAb1 alanine-substituted derivative D95A (antibody, V domains shown)
# VH: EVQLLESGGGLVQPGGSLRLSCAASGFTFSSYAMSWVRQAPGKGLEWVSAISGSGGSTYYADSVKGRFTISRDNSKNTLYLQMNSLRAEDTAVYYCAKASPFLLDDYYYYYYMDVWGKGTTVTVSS
# VL: B2 VL
# notes: aglyco-IgG1 vector (DID-2600)
# B16: mAb1 alanine-substituted derivative Y(100H)A (antibody, IgG1, V domains shown)
# VH: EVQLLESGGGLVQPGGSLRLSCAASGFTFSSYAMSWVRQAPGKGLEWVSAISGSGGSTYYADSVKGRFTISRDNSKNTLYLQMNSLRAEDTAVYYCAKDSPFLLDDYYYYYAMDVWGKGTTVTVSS
# VL: B2 VL
# notes: aglyco-IgG1 vector (DID-2600)
# B17: mAb1 alanine-substituted derivative L100A (antibody, IgG1, V domains shown)
# VH: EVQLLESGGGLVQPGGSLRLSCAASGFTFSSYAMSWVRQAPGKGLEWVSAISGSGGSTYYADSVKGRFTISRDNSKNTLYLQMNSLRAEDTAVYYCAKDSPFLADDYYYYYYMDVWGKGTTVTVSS
# VL: B2 VL
# notes: aglyco-IgG1 vector (DID-2600); Leucine at position 100 is changed to alanine
# B18: mAb1 alanine-substituted derivative L99A (antibody, IgG1, V domains shown)
# VH: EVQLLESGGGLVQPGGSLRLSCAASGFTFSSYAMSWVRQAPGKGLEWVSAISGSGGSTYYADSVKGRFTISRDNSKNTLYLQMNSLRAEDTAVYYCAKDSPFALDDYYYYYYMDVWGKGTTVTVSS
# VL: B2 VL
# notes: aglyco-IgG1 vector (DID-2600)
# B19: mAb1 alanine-substituted derivative D(100B)A (antibody, IgG1, V domains shown)
# VH: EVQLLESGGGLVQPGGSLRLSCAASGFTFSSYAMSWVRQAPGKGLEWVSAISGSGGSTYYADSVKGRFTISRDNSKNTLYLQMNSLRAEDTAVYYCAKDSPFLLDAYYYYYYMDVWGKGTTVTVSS
# VL: B2 VL
# notes: aglyco-IgG1 vector (DID-2600)
# B20: mAb1 alanine-substituted derivative Y(100D)A (antibody, IgG1, V domains shown)
# VH: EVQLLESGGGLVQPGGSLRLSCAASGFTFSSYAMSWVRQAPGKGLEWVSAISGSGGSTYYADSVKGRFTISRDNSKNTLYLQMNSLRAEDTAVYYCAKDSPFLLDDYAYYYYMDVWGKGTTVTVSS
# VL: B2 VL
# notes: aglyco-IgG1 vector (DID-2600)
# B21: mAb1 alanine-substituted derivative M(100I)A (antibody, IgG1, V domains shown)
# VH: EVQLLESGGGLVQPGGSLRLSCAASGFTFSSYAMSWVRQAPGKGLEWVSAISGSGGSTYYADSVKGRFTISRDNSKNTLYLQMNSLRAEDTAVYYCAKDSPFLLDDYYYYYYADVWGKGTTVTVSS
# VL: B2 VL
# notes: aglyco-IgG1 vector (DID-2600)
# Molecular target: T5, purified recombinant his tagged human CD137 (human, UniProt Q07011 24-186)
# T5 construct: not shown: his tag
# Assay: Carterra MX96 SPRi; antibody printed on chip, his tagged human CD137 injected
# Method: The resulting anti-CD137 antibodies from different selection rounds were plotted on kd/kₐ double log plots. Apparent association and dissociation kinetic rate constants (kₐ and kd values) were determined on an SPRi reader (MX96, Carterra) in a running buffer of PBS-T 0.01%. Anti-human CD137 antibodies were covalently printed on a Carboxymethyldextran hydrogel 50 L chip (Xantec bioanalytics) on a CFM (Carterra). Freshly mixed activating reagents (150 […] 0.1 M sulfo-NHS in H2O) were used to activate the surface of the SPR substrate for 7 minutes. Antibodies at 10 mg/ml in acetic acid buffer pH 4.5 were used for printing for 15 minutes. The printed chip was then quenched on SPRi reader (MX96, Carterra) with 1 M ethanolamine for 15 minutes. For kinetics analysis, purified recombinant his tagged human CD137 (0, 2.05, 5.12, 12.8, 32, 80, 200, 500 nM) was injected sequentially. For each concentration, there was 5 minutes of association followed by 10 minutes of dissociation. Data were processed and analyzed in SPR Inspection Tool and Scrubber softwares. The kinetic data were referenced with the interstitial reference spots and double-referenced to a buffer cycle, and then fit globally to a 1:1 binding model to determine their apparent association and dissociation kinetic rate constants (kₐ and kd values). The ratio kd/kₐ was used to derive the KD value of each antigen/mAb interaction, i.e. KD=kd/kₐ.
row,Kd,Binder
1,12.1 nM,B1
2,3.2 nM,B2
3,20 nM,B3
4,41.4 nM,B4
5,6.8 nM,B5
6,4.1 nM,B6

# Molecular target: T1, mouse CD137 (recombinant, ForteBio …)
# Assay: ForteBio Octet (BLI) as described in Example 2
# Method: Affinity of the CD137 antibodies was determined by measuring their kinetic constants (kₐ, kd, KD) on ForteBio Octet. ForteBio affinity measurements were performed generally as previously described (Estep et al., MAbs. 2013 5(2):270-8). Briefly, ForteBio affinity measurements were performed by loading antibodies (IgGs) on-line onto AHQ sensors. Sensors were equilibrated off-line in assay buffer for 30 minutes and then monitored on-line for 60 seconds for baseline establishment. For avid binding measurement, sensors with loaded IgGs were exposed to 100 nM antigen (human, cyno, or murine CD137) for 3 minutes, afterwards they were transferred to assay buffer for 3 minutes for off-rate measurement. Monovalent binding measurements were obtained by loading human CD137-Fc fusion on AHQ sensors followed by exposure to 200 nM antibody Fab in solution. Kinetics data were fit using a 1:1 binding model in the data analysis software provided by ForteBio (data not shown).
row,Kd,Binder
1,25.8 nM,B1
2,72 nM,B2
3,8.4 nM,B3
4,6.9 nM,B4
5,1.2 nM,B5
6,4.8 nM,B6

# Molecular target: T6, Fc-, mouse IgG2a-, or His-tagged human CD137 (human, UniProt Q07011 24-186)
# T6 construct: Antigens came from ACRO Biosystems, Sino Biological and internal sources; not shown: Fc, mouse IgG2a or His tag
# Assay: BLI Octet HTX; tagged CD137 on biosensor, Fab 0-500 nM in solution; global 1:1 fit, apparent KD
# Method: (§1) The anti-CD137 antibodies were further tested for their binding to CD137 from multiple species. Specifically, mAb1, mAb8 and mAb10 were analyzed for binding to human, mouse, cynomolgus and canine CD137. Kinetic experiments were performed on Octet HTX (ForteBio) in kinetics buffer (1×PBS, pH 7.4, 0.1 mg/ml BSA, and 0.002% Tween 20). Fc-, mouse IgG2a-, or His-tagged CD137 (human, mouse, cyno or canine) were loaded for 5 minutes on pre-hydrated biosensors, AHC, AMC or NTA respectively. The sensors were then dipped into Fabs (0, 5.12, 12.8, 32, 80, 200 and 500 nM) for 5 minutes of association, following by 15 minutes of dissociation. Results were analyzed with ForteBio Data Analysis 9.0 and fit globally to a 1:1 binding model to determine the apparent KD. KD for human and mouse CD137 binding were confirmed by using antigens from different sources (ACRO Biosystems, Sino Biological and internal).
row,Kd,Binder
1,50 to 70 nM,B7
2,3 to 5 nM,B8
3,0.9 nM,B9

# Molecular target: T2, Fc-, mouse IgG2a-, or His-tagged …
# Assay: as above
# Method: as §1
row,Kd,Binder
1,30 to 100 nM,B7
2,3 to 7 nM,B8
3,1.8 nM,B9

# Molecular target: T3, Fc-, mouse IgG2a-, or His-tagged mouse …
# Assay: as above
# Method: as §1
row,Kd,Binder
1,300 to 500 nM,B7
2,50 to 90 nM,B8
3,10 to 30 nM,B9

# Molecular target: T4, mouse CD137 (equilibrium cell-binding …)
# Assay: equilibrium cell-binding assay, mouse CD137
Kd,binding result,Binder
11 nM,,B10
,no binding,B11
40 nM,,B12
,no binding,B13
25 nM,,B14
,no binding,B15
,no binding,B16
,no binding,B17
33 nM,,B18
54 nM,,B19
170 nM,,B20
21 nM,,B21

# Molecular target: T7, human CD137 (recombinant, construct not stated) (human, UniProt Q07011 24-186)
# T7 construct: also called huCD137; 4-1BB
# Assay: Wasatch SPR kinetics, human CD137
Kd,binding result,Binder
1 nM,,B10
,no binding,B11
1.8 nM,,B12
,no binding,B13
1 nM,,B14
,no binding,B15
,no binding,B16
,no binding,B17
2.7 nM,,B18
1.3 nM,,B19
1.8 nM,,B21

# From patent publication US20240181050A1 (COMPASS THERAPEUTICS, published 2024)
